Key:
[1] = molecular target: recombinant Histone H3.1 (New England BioLabs, M2503S)

Sequence of Flag-eIF4B (wild type) (chain, as listed by the source): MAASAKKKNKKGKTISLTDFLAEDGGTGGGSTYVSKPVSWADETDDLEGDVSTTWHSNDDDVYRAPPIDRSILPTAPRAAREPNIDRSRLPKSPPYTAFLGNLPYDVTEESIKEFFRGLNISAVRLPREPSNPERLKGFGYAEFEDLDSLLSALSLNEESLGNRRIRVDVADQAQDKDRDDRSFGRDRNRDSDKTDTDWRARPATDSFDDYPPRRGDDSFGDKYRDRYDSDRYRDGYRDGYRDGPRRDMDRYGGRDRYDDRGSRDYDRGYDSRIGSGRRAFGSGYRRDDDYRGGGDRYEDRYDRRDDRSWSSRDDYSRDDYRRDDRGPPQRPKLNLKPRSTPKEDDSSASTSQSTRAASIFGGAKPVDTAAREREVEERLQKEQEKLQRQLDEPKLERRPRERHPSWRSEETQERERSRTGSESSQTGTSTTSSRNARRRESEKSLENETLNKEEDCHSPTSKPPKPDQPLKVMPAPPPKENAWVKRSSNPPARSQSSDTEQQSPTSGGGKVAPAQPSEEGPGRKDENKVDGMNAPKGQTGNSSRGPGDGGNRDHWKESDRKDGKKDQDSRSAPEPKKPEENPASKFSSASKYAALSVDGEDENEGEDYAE
Sequence of Flag-eIF4B (S406A) (chain, as listed by the source S406A): as the sequence (chain, as listed by the source) above, with S406A counted along it

B1: recombinant MELK (kinase domain) (protein)
chain: MKDYDELLKYYELHETIGTGGFAKVKLACHILTGEMVAIKIMDKNTLGSDLPRIKTEIEALKNLRHQHICQLYHVLETANKIFMVLEYCPGGELFDYIISQDRLSEEETRVVFRQIVSAVAYVHSQGYAHRDLKPENLLFDEYHKLKLIDFGLCAKPKGNKDYHLQTCCGSLAYAAPELIQGKSYLGSEADVWSMGILLYVLMCGFLPFDDDNVMALYKKIMRGKYDVPKWLSPSSILLLQQMLQVDPKKRISMKNLLNHPWIMQDYNYPVEWQSKNPFIHLDDDCVTELSVHHRNNRQTMEDLISLWQYDHLTATYLLLLAKKARGKPVRLRLSSFSCG
in vitro kinase assay, phosphorylation of eIF4B at S406 (immunoblot) (Flag-eIF4B (S406A)): This phosphorylation was abolished when wild type (wt) eIF4B was replaced with a mutant eIF4B (S406A)
in vitro kinase assay, phosphorylation of Histone H3 at Thr3, Ser10 and Thr11 (immunoblot) [1]: Thr3, Ser10, and Thr11 of human Histone H3 were readily phosphorylated by the kinase domain of MELK
in vitro kinase assay, phosphorylation of eIF4B at Ser406 (immunoblot) (Flag-eIF4B (wild type)): Ser406, but not Ser422, of human eIF4B was readily phosphorylated by full-length MELK or the kinase domain of MELK
in vitro kinase assay, phosphorylation of eIF4B at Ser422 (immunoblot) (Flag-eIF4B (wild type)): MELK does not phosphorylates eIF4B at S422 in vitro
